Measurements from US12714679B2, “Fullerenes to treat diseases and conditions” (The Cleveland Clinic Foundation, priority 2018, dated 2026).

Tests used:
[1] = Lead acetate (PbA/PbS) assay, catalytic H2S production from cysteine; assay type: biochemical
Protocol: Further work was conducted as follows with regard to the catalytic production of H2S by PHFs. PHF (SJJR; 10 mg/mL) was added to a mixture of L-cysteine (10 mM) and […] (PLP; 1 mM) in a 96-well plate and then covered with a blotting paper saturated with lead acetate. After 24 hours, the lead acetate paper was removed and scanned. The lead sulfide dots were analyzed for average integrated density using ImageJ. After every 24 hours, the wells were replenished with L-cysteine (10 mM) and covered with the lead acetate paper and the lead sulfide dots were analyzed.
Lead acetate assay: The kinetics and catalysis coefficients for PHF catalyzed H2S production were determined using lead acetate assay (PbA/PbS assay) as generally described in Hine and Mitchell, “Endpoint and Kinetic Measurement of Hydrogen Sulfide Production Capacity in Tissue Extracts” Bio-Protocol, 7 (13), e2382, 2017). Briefly: Reaction mixtures (150 μL/well) containing PHF or enzyme (CGL), enzyme co-factor (PLP) and substrate (e.g., cysteine) were tested in 96-well plates Immediately after addition of catalyst, 96-well plates were covered with lead acetate saturated paper and placed inside a 37° C. cell culture incubator. At a predetermined time point, the lead acetate paper was removed and scanned, and the lead sulfide dots analyzed with ImageJ using the IntDen function. A calibration curve was prepared with different concentrations of sodium hydrosulfide plotted against the integrated density obtained on lead acetate/lead sulfide paper. The presence of pyruvic acid after reaction was confirmed in a preliminary experiment by liquid chromatography—mass spectroscopy.
To determine the steady-state kinetic parameters experiments were carried out with different initial substrate concentrations. The initial (linear) slope from the graph of H2S concentration versus time at each substrate concentration was used to determine the reaction velocity, which was plotted against initial cysteine concentrations to obtain Michaelis-Menten curves (FIGS. 5 and 6). Least squares non-linear fitting was used to determine values of Km and Vmax from the equation v=Vmax [S]/(Km+[S]).

HR-TEM size = assay type: physicochemical
Source text: FIG. 3: Panel A) a hypothetical schematic illustration of the breakdown of cysteine to hydrogen sulfide, ammonia and pyruvic acid. While the present disclosure is not limited to any particular mechanism and an understanding of the mechanism is not necessary to practice the invention, it is believed that polyhydroxy fullerenes (PHF) mimic carbon-sulfur lyases. It was found during work conducted during development of embodiments herein that PHFs catalyze the breakdown of cysteine under physiological conditions. Panel B) HR-TEM image of PHF (C60(OH)9O7Na6) showing a cluster size of 3.4±0.5 nm. Panel C) HR-TEM image of CGL showing a molecular size of 4.1±0.4 nm.

[2] = Without PLP, substrate L-Cysteine

Molecule	H2S produced ([1]; PLP with cysteine, no PHF, in 24 hours)	H2S production at room temperature ([1]; PBS)	H2S production at 4° C. ([1]; PBS, presence or absence of PLP)	KCAT ([1]; With PLP, substrate L-Cysteine)	Km ([1]; With PLP, substrate L-Cysteine)	Vmax ([1]; With PLP, substrate L-Cysteine)	KCAT [1, 2]	Vmax [1, 2]	molecular size (HR-TEM size)
Cc1ncc(COP(=O)(O)O)c(C=O)c1O [PLP, pyridoxal-5′-phosphate, reference compound]	0.024 mM								
cystathionine γ-lyase (protein, UniProt P32929 1-405, looked up, enzyme producing H2S from cysteine, comparator catalyst) Cystathionine gamma-lyase: MQEKDASSQGFLPHFQHFATQAIHVGQDPEQWTSRAVVPPISLSTTFKQGAPGQHSGFEYSRSGNPTRNCLEKAVAALDGAKYCLAFASGLAATVTITHLLKAGDQIICMDDVYGGTNRYFRQVASEFGLKISFVDCSKIKLLEAAITPETKLVWIETPTNPTQKVIDIEGCAHIVHKHGDIILVVDNTFMSPYFQRPLALGADISMYSATKYMNGHSDVVMGLVSVNCESLHNRLRFLQNSLGAVPSPIDCYLCNRGLKTLHVRMEKHFKNGMAVAQFLESNPWVEKVIYPGLPSHPQHELVKRQCTGCTGMVTFYIKGTLQHAEIFLKNLKLFTLAESLGGFESLAELPAIMTHASVLKNDRDVLGISDTLIRLSVGLEDEEDLLEDLDQALKAAHPPSGSHS		produced H2S only in presence of PLP	No H2S was produced	130 s⁻¹	25.4 mM	2.9 nM/s	5800 s⁻¹	1.3 nM/s	4.1±0.4 nm
